Target: T1, 人TROP2蛋白C端合成多肽 Arg299-Leu323, 裸肽 (not coupled to KLH) (human)
T1 construct: also called 抗原多肽
T1 peptide: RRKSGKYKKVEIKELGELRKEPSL
Experiment: indirect ELISA screen of transiently expressed antibodies

B1: MJ1-1抗体 (rabbit anti-human TROP2 monoclonal antibody) (antibody, V domains shown)
VH: QSVEESGGRLVTPGTPLTLTCTVSGIDLSSDAIFWVRQAPGEGLKYIGFIHPAGVTYYAAWARGRFTISRTSTTVDLKMTRLTTEDTATYFCGRYFGYASIDIWGPGTLVTVSS
VL: AQVLTQTPSSTSAAVGGTVTINCQSSQNVYDKNQLSWFQQKPGQPPKLLIYKASTLASGVPSRFSGSGSGTQFTLTISGVECDDAATYYCAGVYTGNIYTFGGGTEVVVKG
notes: also called MJ1-1单克隆抗体; 抗TROP2抗体
binding result: binds

Source: patent publication CN112500484A (MEDX TRANSLATIONAL MEDICINE CO LTD, dated 2021)
